These results are taken from patent US20230295324A1 (published 2023).

Substitutions are numbered along the chain they refer to.

The labels stand for the following.
B1: PR002061 (antibody, human IgG1, V domains shown)
VH: EVQLLESGGGLVQPGGSLRLSCAASGFTFSSYAMSWVRQAPGKGLEWVSAISGRGGSTYYADSVRGRFTISRDNSKNTLYLQMNSLRAEDTAVYYCANGMTGTTDVDYWGQGTLVTVSS
notes: no light chain; also called anti-OX40 HCAb antibody
B2: PR002059 (antibody, human IgG1, V domains shown)
VH: B1 VH with A23V, A24V, F27L, L45R, Y59F, T103S
notes: as for B1
B3: PR002070 (antibody, human IgG1, V domains shown)
VH: B1 VH with A23I, T28S, Y59F, T69N, A88V
notes: as for B1
B4: PR002068 (antibody, human IgG1, V domains shown)
VH: B1 VH with T28S, S35T, R54G, T58I, Y59F, T103S, L114Q
notes: as for B1
B5: PR002064 (antibody, human IgG1, V domains shown)
VH: B1 VH with L5V, S7T, L45Q, R54S, Y59F, N84S
notes: as for B1
B6: PR002060 (antibody, human IgG1, V domains shown)
VH: B1 VH with S31D, N84T
notes: as for B1
B7: PR002069 (antibody, human IgG1, V domains shown)
VH: B1 VH with L45R, R54G, S57N, Y59F, M100V
notes: as for B1
B8: PR002057 (antibody, human IgG1, V domains shown)
VH: B1 VH with T28I, R54G, Y59F, N98D
notes: as for B1
B9: PR002062 (antibody, human IgG1, V domains shown)
VH: B1 VH with L45Q, R54S, Y59F, N84S
notes: as for B1
B10: PR002056 (antibody, human IgG1, V domains shown)
VH: B1 VH with R54G, T58I, Y59F
notes: as for B1
B11: PR002075 (antibody, human IgG1, V domains shown)
VH: B1 VH with L5V, S7T, V12I, R54S, S57N, M100I, L114R
notes: as for B1

The target of the first assay is T1, human OX40 on cells (CHO-K1/hu OX40) (human, UniProt P43489 29-277).
T1 construct: whole, on cells; Also used here for OX40 on the HEK293/OX40/NF-kb reporter cells and on human T cells in the functional assays; also called CHO-K1/OX40; human OX40 cells
T1 sequence (looked up): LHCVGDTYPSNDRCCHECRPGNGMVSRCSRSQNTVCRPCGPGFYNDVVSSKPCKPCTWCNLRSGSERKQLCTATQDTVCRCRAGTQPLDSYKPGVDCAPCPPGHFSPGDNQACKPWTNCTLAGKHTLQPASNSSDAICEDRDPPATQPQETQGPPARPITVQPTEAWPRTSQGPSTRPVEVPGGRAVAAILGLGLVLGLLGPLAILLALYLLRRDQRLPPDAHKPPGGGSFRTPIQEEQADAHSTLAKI
The experiment in a line: FACS, blocking of biotin-human OX40L on CHO-K1/hu OX40 cells. Here is the method:
Briefly, the CHO-K1/hu OX40 cells were digested and resuspended in an F-12K complete medium, and the cell density was adjusted to 1×10⁶ cells/mL. The cells were seeded in a 96-well V-bottom plate (Corning, #3894) at 100 μL/well, and centrifuged, and then the supernatant was discarded. The test antigen-binding proteins diluted in a 3-fold gradient at concentrations that were 2 times the final concentrations were added at 100 μL/well, and the mixture was well mixed, wherein the antigen-binding protein had the highest final concentration of 100 nM, and a total of 8 concentrations were obtained. […] The cells were incubated at 4° C. for 1 h away from light. Thereafter, the cells were centrifuged at 4° C. for 5 min, and then the supernatant was discarded. […] The cells in each well were rinsed twice with 100 μL of pre-cooled PBS, and centrifuged at 500 g at 4° C. for 5 min, and then the supernatant was discarded. A 1:200 fluorescent secondary antibody PE Streptavidin (BD Biosciences, #554061) was added at 100 μL/well, and the cells were incubated away from light at 4° C. for 30 min. The cells in each well were rinsed twice with 200 μL of pre-cooled PBS, and centrifuged at 500 g at 4° C. for 5 min, and then the supernatant was discarded. Finally, the cells in each well were resuspended in 200 μL of precooled PBS. Fluorescence signal values were read using BD FACS CANTOII, and IC50 was calculated. Inhibition rate %={average MFI of non-blocking control well−MFI value of OX40 antibody}/{(average MFI of non-blocking control well)−average MFI of 100% blocking control well)}×100%.
Background: A flow cytometer gives signals particle by particle.
As for B1, the “Maximum inhibition rate (%)” value turned out to be 16%.

On to B2, for which the IC50 turned out to be 15.9 nM and the “Maximum inhibition rate (%)” value stood at 79%.

Turning to B3, half-maximal inhibition (IC50) required 67.6 nM and the “Maximum inhibition rate (%)” value was 46%.

For B4, 23.1 nM corresponded to half-maximal inhibition (IC50) and the “Maximum inhibition rate (%)” value came out at 25%.

For B5, the “Maximum inhibition rate (%)” value is 20%.

As to B6, the “Maximum inhibition rate (%)” value amounted to 12%.

Turning to B7, the IC50 was 50.9 nM and the “Maximum inhibition rate (%)” value was 53%.

On to B8, for which the “Maximum inhibition rate (%)” value stood at 12%.

For the molecule B9, the “Maximum inhibition rate (%)” value worked out at 13%.

For B10, the 50% inhibitory concentration (IC50) was 43.7 nM and the “Maximum inhibition rate (%)” value was 34%.

The target in the next assay is T2, human OX40 protein (Acro biosystem, #OX0-H5224) (human, UniProt P43489 29-216).
T2 construct: Bought recombinant protein
T2 sequence (looked up): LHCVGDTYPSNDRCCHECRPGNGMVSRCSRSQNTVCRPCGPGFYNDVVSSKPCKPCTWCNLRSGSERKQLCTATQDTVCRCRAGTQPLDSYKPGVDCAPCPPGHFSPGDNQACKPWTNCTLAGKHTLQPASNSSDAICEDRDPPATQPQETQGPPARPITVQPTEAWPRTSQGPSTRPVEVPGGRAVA
The experiment in a line: ELISA, coated human OX40 protein. The method, then: (§1) This example is intended to investigate the in vitro binding activity of the anti-OX40 HCAb monoclonal antibodies prepared in Example 1 to human and cynomolgus monkey OX40 proteins. The antibody binding assay at the protein level was performed using a human OX40 protein (Acro biosystem, #OX0-H5224) and a cynomolgus monkey OX40 protein (Novoprotein, #CB17). Briefly, a 384-well plate (PerkinElmer, #6007509) was coated with 1 μg/mL human OX40 protein and a cynomolgus monkey OX40 protein dissolved in PBS at 20 μL/well, and incubated at 4° C. overnight. The next day, the 384-well plate was washed three times with PBS containing 0.05% Tween (MEDICAGO, #09-9410-100), and blocked with PBS containing 2% milk (Bio-Rad, #170-6404) at 37° C. for 1 h. […] The plate was added with a stop buffer (BBI life sciences, #E661006-0200) at 20 μL/well, and read for OD₄₅₀₋₆₅₀ values using a plate reader (Molecular Devices, model: SpectraMax Plus). The values were analyzed with Graphad 8.0 and plotted.
A general note: An ELISA detects its analyte on a solid surface through an enzyme-linked reagent.
B1: the EC50 is 0.134 nM and the “Maximum OD” value was found to be 1.96 OD.

Consider B2, for which the EC50 was determined as 0.0695 nM and the “Maximum OD” value was found to be 2 OD.

B3: it took 0.0729 nM to reach a half-maximal effect (EC50) and the “Maximum OD” value amounted to 2.4 OD.

With B4, the EC50 was found to be 0.092 nM and the “Maximum OD” value turned out to be 2.42 OD.

With B5, it took 0.0814 nM to reach a half-maximal effect (EC50) and the “Maximum OD” value came to 2.28 OD.

B6: the concentration giving a half-maximal response (EC50) amounted to 0.0828 nM and the “Maximum OD” value is 2.09 OD.

Regarding B7, the EC50 is 0.051 nM and the “Maximum OD” value was found to be 2.24 OD.

Consider B8, for which the EC50 turned out to be 0.124 nM and the “Maximum OD” value worked out at 1.76 OD.

As to B9, the EC50 turned out to be 0.103 nM and the “Maximum OD” value amounted to 1.94 OD.

B10: the EC50 is 0.057 nM and the “Maximum OD” value amounted to 1.71 OD.

As for B11, the EC50 worked out at 0.0618 nM and the “Maximum OD” value was 2.48 OD.

In a further assay the target is T1, human OX40 on cells (CHO-K1/hu OX40). Kind of assay: FACS, CHO-K1/hu OX40 cells. Here is the method: This example is intended to investigate the in vitro binding activity of anti-human OX40 HCAb monoclonal antibodies to human OX40. The antibody binding assay at the cellular level was performed using a stable CHO-K1 cell strain overexpressing human OX40 (CHO-K1/hu OX40). Briefly, the CHO-K1/hu OX40 cells were digested, resuspended in an F12K complete medium and washed once with PBS. The cell density was adjusted to 1×10⁶ cells/mL with PBS. The cells were seeded in a 96-well V-bottom plate (Corning, #3894) at 100 μL/well, and centrifuged, and then the supernatant was discarded. Then, the test antibodies diluted in a 3-fold gradient at concentrations that were 2 times the final concentrations were added at 100 μL/well. The cells were incubated at 4° C. for 1 h away from light. Thereafter, the cells in each well were rinsed twice with 100 μL of pre-cooled PBS, and centrifuged at 500 g at 4° C. for 5 min, and then the supernatant was discarded. […] The plate was incubated away from light at 4° C. for 30 min. The cells in each well were rinsed twice with 100 μL of pre-cooled PBS, and centrifuged at 500 g at 4° C. for 5 min, and then the supernatant was discarded. Finally, the cells in each well were resuspended in 200 μL of pre-cooled PBS, and the fluorescence signal values were read using a BD FACS CANTOII.
Take B1: the EC50 amounted to 10.9 nM and the “Maximum MFI” value came to 1740 MFI.

As for B2, the EC50 amounted to 1.35 nM and the “Maximum MFI” value worked out at 3630 MFI.

Take B3: the midpoint of the response, the EC50, lay at 4.39 nM and the “Maximum MFI” value was 2530 MFI.

For B4, the EC50 was 10.1 nM and the “Maximum MFI” value worked out at 2130 MFI.

As for B5, the EC50 worked out at 22.4 nM and the “Maximum MFI” value amounted to 1570 MFI.

Consider B6, for which the EC50 amounted to 8.95 nM and the “Maximum MFI” value stood at 1860 MFI.

In the case of B7, it took 4.43 nM to reach a half-maximal effect (EC50) and the “Maximum MFI” value was determined as 2990 MFI.

In the case of B8, the EC50 is 12.8 nM and the “Maximum MFI” value turned out to be 1670 MFI.

B9: a half-maximal response (EC50) required 37.9 nM and the “Maximum MFI” value turned out to be 1900 MFI.

B10: a half-maximal response (EC50) required 3.12 nM and the “Maximum MFI” value stood at 2930 MFI.

For the next assay the target is unchanged. Kind of assay: cell-based or functional assay.
With B1, the “EC50, HEK293/OX40/NF-kb luciferase reporter” value turned out to be 23.2 nM and the “Maximum fluorescence signal value, HEK293/OX40/NF-kb luciferase reporter” value (from here on “Maximum fluorescence signal value”) was found to be 156000 luminescence.

Regarding B2, the “EC50, HEK293/OX40/NF-kb luciferase reporter” value came out at 1.83 nM and the “Maximum fluorescence signal value” value was determined as 117000 luminescence.

In the case of B3, the “EC50, HEK293/OX40/NF-kb luciferase reporter” value came out at 7.6 nM and the “Maximum fluorescence signal value” value was 129000 luminescence.

As to B4, the “EC50, HEK293/OX40/NF-kb luciferase reporter” value worked out at 22.9 nM and the “Maximum fluorescence signal value” value turned out to be 139000 luminescence.

B5: the “EC50, HEK293/OX40/NF-kb luciferase reporter” value came out at 30.3 nM and the “Maximum fluorescence signal value” value was 147000 luminescence.

Regarding B6, the “EC50, HEK293/OX40/NF-kb luciferase reporter” value was determined as 15.1 nM and the “Maximum fluorescence signal value” value came out at 132000 luminescence.

Take B7: the “EC50, HEK293/OX40/NF-kb luciferase reporter” value was found to be 6.27 nM and the “Maximum fluorescence signal value” value came out at 99700 luminescence.

Regarding B8, the “EC50, HEK293/OX40/NF-kb luciferase reporter” value came out at 14.3 nM and the “Maximum fluorescence signal value” value turned out to be 172000 luminescence.

As for B9, the “EC50, HEK293/OX40/NF-kb luciferase reporter” value is 25.2 nM and the “Maximum fluorescence signal value” value was 149000 luminescence.

For the molecule B10, the “EC50, HEK293/OX40/NF-kb luciferase reporter” value worked out at 4.89 nM and the “Maximum fluorescence signal value” value stood at 154000 luminescence.

A further assay concerns the target T3, cynomolgus monkey OX40 protein (Novoprotein, #CB17) (cynomolgus monkey).
T3 construct: Bought recombinant protein; also called cyno OX40
Kind of assay: ELISA, coated cyno OX40 protein. The method, then: as §1
For B1, the EC50 was 0.152 nM and the “Maximum OD” value was 1.87 OD.

Turning to B2, the midpoint of the response, the EC50, lay at 0.0774 nM and the “Maximum OD” value was 1.9 OD.

Regarding B3, the EC50 was 0.132 nM and the “Maximum OD” value came out at 2.51 OD.

On to B4, for which the EC50 was determined as 0.253 nM and the “Maximum OD” value came out at 2.38 OD.

With B5, it took 0.218 nM to reach a half-maximal effect (EC50) and the “Maximum OD” value turned out to be 2.08 OD.

With B6, the response was half-maximal at 0.0938 nM (EC50) and the “Maximum OD” value came to 1.94 OD.

In the case of B7, the EC50 worked out at 0.129 nM and the “Maximum OD” value is 2.24 OD.

In the case of B8, the concentration giving a half-maximal response (EC50) came to 0.133 nM and the “Maximum OD” value was determined as 1.76 OD.

Turning to B9, the EC50 is 0.126 nM and the “Maximum OD” value came to 1.81 OD.

On to B10, for which the EC50 came to 0.0682 nM and the “Maximum OD” value worked out at 1.69 OD.

In the case of B11, the midpoint of the response, the EC50, lay at 0.415 nM and the “Maximum OD” value came to 3.07 OD.

For orientation: IC50 means the concentration needed to halve the response being measured. By EC50 is commonly meant the concentration needed to bring the measured effect to its halfway point.
